± gives the half width of the 95% confidence interval.
Experiments:
[1] = folding stability dG unfold (combined trypsin and chymotrypsin); higher = more stable
In short: (§1)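 Sequencing followed digestion of designed mini-proteins with trypsin and chymotrypsin, each at 11 concentrations in threefold dilutions together with a no-protease condition. The mini-proteins were under 80 residues, had no cysteine, sat in a PA-tagged cDNA display construct, and were kept only if AlphaFold2 dimer inter-PAE was above 15. From the counts, Bayesian fitting gave K50, and unfolding free energy was derived against a sequence-predicted unfolded-state K50 and a shared folded-state K50, per protease or combined.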

[2] = folding stability dG unfold from trypsin proteolysis; higher = more stable
In short: as §1

[3] = folding stability dG unfold from chymotrypsin proteolysis; higher = more stable
In short: as §1

## SAGGSAGGSAGSYPIEYIPAPPDRLWLIDPKNGKIYEIYLDPERGEYSFEEIKEFPLGLESAGGSAGGSAGG [r11_352_JUSTAS]
[1]
  folding stability dG unfold: 1.57 ± 0.1 kcal/mol
[2]
  folding stability dG unfold: 1.34 ± 0.045 kcal/mol
[3]
  folding stability dG unfold: 1.66 ± 0.073 kcal/mol

## SAGGSAGGSAGGGMMKTVLISLEGVDPSGGPSRRVEIELTLSPEEIPKVIEELAKAGRVLSAGGSAGGSAGG [r7_618_JUSTAS]
[1]
  folding stability dG unfold: 0.232 ± 0.099 kcal/mol
[2]
  folding stability dG unfold: 0.533 ± 0.058 kcal/mol
[3]
  folding stability dG unfold: -0.0881 ± 0.1 kcal/mol

## SAGGSAGGSWMYKKNPDGKLEPLPPIRPVPIKIPVPINGRWIPVPIWMTVADIDYIIKEFLKNSAGGSAGGS [r20_148_TrROS]
[1]
  folding stability dG unfold: 1.41 ± 0.15 kcal/mol
[2]
  folding stability dG unfold: 1.48 ± 0.042 kcal/mol
[3]
  folding stability dG unfold: 0.785 ± 0.15 kcal/mol

## MKIIDVVPTPDGLIVVIKVVFPNTEEAYVSASDLDKLIKEIFERFGVKPEYLKITDIKAFSPEELKEFLEES [r1_119_TrMRF]
[1]
  folding stability dG unfold: 2.78 ± 0.075 kcal/mol
[2]
  folding stability dG unfold: 2.37 ± 0.072 kcal/mol
[3]
  folding stability dG unfold: 2.98 ± 0.031 kcal/mol

## KKTYTAEEIRKLAEKLGLEVPEGDLEIKVVFKDNKKTYTIKPGEEYTLEEILEKLKKEKPNIVKIEIKKKPS [r1_135_TrROS_Hall]
[1]
  folding stability dG unfold: 1.99 ± 0.27 kcal/mol
[2]
  folding stability dG unfold: 1.32 ± 0.18 kcal/mol
[3]
  folding stability dG unfold: 2.31 ± 0.034 kcal/mol

## SAGGSAGGATTEINLPLKVPGSGVTITKMTYDPNKDVYFVTATFPDGTKKTIKVKSLEELKKLLSAGGSAGG [r6_548_JUSTAS]
[1]
  folding stability dG unfold: 3.11 ± 0.15 kcal/mol
[2]
  folding stability dG unfold: 3.83 ± 0.24 kcal/mol
[3]
  folding stability dG unfold: 2.52 ± 0.046 kcal/mol

## SAGGMSLEHVTEIVETVTHPDGTKTVTIRLSDPAIWAGEDPATAAALAEAVQAEHADEGVAVTVVGAPSAGG [r13_243_JUSTAS]
[1]
  folding stability dG unfold: 0.585 ± 0.15 kcal/mol
[2]
  folding stability dG unfold: -0.642 ± 0.26 kcal/mol
[3]
  folding stability dG unfold: 1.05 ± 0.042 kcal/mol

## SAGGSPISLEVSTSTLPDGTLRVTTTATSPDSSRSYTVTLDFPPSQPEEIPARAAAEAAAIAADPAVASAGG [r13_968_JUSTAS]
[1]
  folding stability dG unfold: 0.907 ± 0.086 kcal/mol
[2]
  folding stability dG unfold: -0.552 ± 0.19 kcal/mol
[3]
  folding stability dG unfold: 1.35 ± 0.058 kcal/mol

## SAGGSAGGSPRIVRVEVDPPPGGLGLARIEVEVVDPSTGVPRLERRTVPVPLGDWKKLLDFLGSAGGSAGGS [r12_691_TrMRF]
[1]
  folding stability dG unfold: 2.23 ± 0.15 kcal/mol
[2]
  folding stability dG unfold: 2.06 ± 0.051 kcal/mol
[3]
  folding stability dG unfold: 2.25 ± 0.054 kcal/mol

## SAPLEQLLEFAEEFAQAYGYRVEIEVYRNGEPKGTYEIPMPKPGQPPVSIMIRIPDPNLYIHVTIYMPRSAG [r14_728_TrROS]
[1]
  folding stability dG unfold: 2.75 ± 0.11 kcal/mol
[2]
  folding stability dG unfold: 2.16 ± 0.071 kcal/mol
[3]
  folding stability dG unfold: 3.07 ± 0.041 kcal/mol

## SAGGSAGGDRLEVVAPVDDPVEQAREFAERLREEFRRRYPDREIDRVEVFYDPGARTLHVRLYPSAGGSAGG [r6_662_TrMRF]
[1]
  folding stability dG unfold: 2.51 ± 0.066 kcal/mol
[2]
  folding stability dG unfold: 2.12 ± 0.026 kcal/mol
[3]
  folding stability dG unfold: 2.704 ± 0.024 kcal/mol

## SAKPVAEGPIRIPNGFEIEITQIKPDKENGEIVIPIEIEMWRPERDPEDPNQPKWEPQEMNIAFTIPLDSAG [r14_888_TrROS]
[1]
  folding stability dG unfold: 0.857 ± 0.22 kcal/mol
[2]
  folding stability dG unfold: 1.3 ± 0.14 kcal/mol
[3]
  folding stability dG unfold: 0.119 ± 0.81 kcal/mol

## SAGGSAGGSAGGSKKKPPKKITLVVWNEETGELTKVEFDAETKEVKVEKVPIKPGDILLSAGGSAGGSAGGS [r4_409_TrROS_Hall]
[1]
  folding stability dG unfold: 0.988 ± 0.21 kcal/mol
[2]
  folding stability dG unfold: 1.18 ± 0.034 kcal/mol
[3]
  folding stability dG unfold: 0.946 ± 0.062 kcal/mol

## SAGGSSEIVELKSIEKKGNSVILTLESKTNDYKVVVVIEGNKIRAYVFDKNGNIIAEFEFDGHPYLSAGGSA [r2_437_TrMRF]
[1]
  folding stability dG unfold: 3.15 ± 0.15 kcal/mol
[2]
  folding stability dG unfold: 2.41 ± 0.11 kcal/mol
[3]
  folding stability dG unfold: 3.34 ± 0.046 kcal/mol

## ITITYDKETGELTVTLSVEIEREDGYLVRVSVTIRINPNGEIKIEKKIEVIKLPPAEVKLTDEELEKLKKES [r1_4_TrROS_Hall]
[1]
  folding stability dG unfold: 2.49 ± 0.27 kcal/mol
[2]
  folding stability dG unfold: 2.41 ± 0.1 kcal/mol
[3]
  folding stability dG unfold: 2.51 ± 0.11 kcal/mol

## SAGGIKIERDPNMWKFEIPLPNKPLTIHISQSDGRYTIAIYENGKPIRTVPFPGPVDDAIERALKKLSAGGS [r8_276_TrROS]
[1]
  folding stability dG unfold: 1.93 ± 0.054 kcal/mol
[2]
  folding stability dG unfold: 1.66 ± 0.034 kcal/mol
[3]
  folding stability dG unfold: 2.05 ± 0.032 kcal/mol

## SAGGSAGGSGMTAEEAREKKVAELKAQGYTPVKVEVVETRTDPATGKVTTKIKIEYKSPKGLTSAGGSAGGS [r20_46_JUSTAS]
[1]
  folding stability dG unfold: 0.275 ± 0.14 kcal/mol
[2]
  folding stability dG unfold: 0.0908 ± 0.081 kcal/mol
[3]
  folding stability dG unfold: 0.333 ± 0.12 kcal/mol

## TWTFTIMIPIKPEIREALDSGKPLPIEELVDWIKDEIARMFGFKDVTVKGIEIHPDPNGEIMVMVTIEFKPS [r1_290_TrROS]
[1]
  folding stability dG unfold: 4.62 ± 0.12 kcal/mol
[2]
  folding stability dG unfold: 4.29 ± 0.28 kcal/mol
[3]
  folding stability dG unfold: 4.64 ± 0.12 kcal/mol

## SAGGSPATVLSSSTLSTTPLPDGTTLTTSETVTLLPNGEPVVTTTTTTTAPDGSVTTTTTTTPLDAASAGGS [r16_261_JUSTAS]
[1]
  folding stability dG unfold: 0.885 ± 0.047 kcal/mol
[2]
  folding stability dG unfold: 1.05 ± 0.043 kcal/mol
[3]
  folding stability dG unfold: 0.671 ± 0.043 kcal/mol

## SAFRFPPGQTIMIKIEWRNPGNGKKRKWSIPIRVDPDKGRVITLDMLKSFLRKWGFNPEDVKIEDITVMSAG [r14_93_TrROS]
[1]
  folding stability dG unfold: 1.81 ± 0.041 kcal/mol
[2]
  folding stability dG unfold: 2.145 ± 0.013 kcal/mol
[3]
  folding stability dG unfold: 1.31 ± 0.069 kcal/mol

## SAGGSAGGSAGGMYYAIITNKNGKKKIIKFKSLEEMEEAAKKNNIKIEIIPKEELEKLLSAGGSAGGSAGGS [r10_66_TrROS_Hall]
[1]
  folding stability dG unfold: 3.65 ± 0.069 kcal/mol
[2]
  folding stability dG unfold: 3.56 ± 0.11 kcal/mol
[3]
  folding stability dG unfold: 3.64 ± 0.043 kcal/mol

## SAGGSAGGMEIRIEKDENGFLRLKVINKKTKKETEIEIPVEDEDALKKLLDAGVERVEIEPLPPSAGGSAGG [r6_639_TrROS_Hall]
[1]
  folding stability dG unfold: 1.14 ± 0.21 kcal/mol
[2]
  folding stability dG unfold: 0.399 ± 0.13 kcal/mol
[3]
  folding stability dG unfold: 1.34 ± 0.08 kcal/mol

## SAGGSAGGSAGGMNPIVIKKTYPVKSGSFTVTLPEGVTPVSFEKDPNSDTITIEVLVEPSAGGSAGGSAGGS [r10_906_JUSTAS]
[1]
  folding stability dG unfold: 0.0999 ± 0.3 kcal/mol
[2]
  folding stability dG unfold: 0.63 ± 0.067 kcal/mol
[3]
  folding stability dG unfold: -0.713 ± 0.37 kcal/mol

## SAGGSAGGSAGMVIELPDGRKAIIVKYDKETKRFYVEIVDKKTGEKKIYEFKSLEEALKASAGGSAGGSAGG [r17_300_TrROS_Hall]
[1]
  folding stability dG unfold: 2.79 ± 0.15 kcal/mol
[2]
  folding stability dG unfold: 2.18 ± 0.16 kcal/mol
[3]
  folding stability dG unfold: 2.86 ± 0.092 kcal/mol

## SAGGSAMTVTTLPDGSTVIHLPSGTTITITTAPDGTKPITITPPDGVPTTFPASVSLEDAIKAALSSAGGSA [r15_371_JUSTAS]
[1]
  folding stability dG unfold: 3.1 ± 0.032 kcal/mol
[2]
  folding stability dG unfold: 3.58 ± 0.044 kcal/mol
[3]
  folding stability dG unfold: 2.67 ± 0.034 kcal/mol

## SAGDVPVPATFEVELPGDGTARVTVVRHPGAAPGGFDTVRVEFRPGPTSSVTLTYRVPPGSAPVPFLGGSAG [r5_47_TrMRF]
[1]
  folding stability dG unfold: 0.965 ± 0.19 kcal/mol
[2]
  folding stability dG unfold: 0.535 ± 0.16 kcal/mol
[3]
  folding stability dG unfold: 1.33 ± 0.31 kcal/mol

## SAGGGISIVSGDPEITPEKAEAIAAELAAILEEKGFTPKDAELARLPGGRILVTITVDDGKPIVFSLSAGGS [r8_485_TrMRF]
[1]
  folding stability dG unfold: 1.49 ± 0.028 kcal/mol
[2]
  folding stability dG unfold: 1.77 ± 0.041 kcal/mol
[3]
  folding stability dG unfold: 1.15 ± 0.019 kcal/mol

## SAGGSAGGSMKVSPASRSEFDGSRVITITVTKEGTGTTTDITIPFSPDEPDVDEVAKAIAESLSAGGSAGGS [r12_415_JUSTAS]
[1]
  folding stability dG unfold: 0.838 ± 0.091 kcal/mol
[2]
  folding stability dG unfold: 0.0886 ± 0.12 kcal/mol
[3]
  folding stability dG unfold: 1.12 ± 0.023 kcal/mol

## MMYLIRVTVYDEETEEEVEEIEILIELSEEELKNMSEEEREKLLEEALKKAEELAKEYPNLKIEVEIVELPS [r1_115_TrROS_Hall]
[1]
  folding stability dG unfold: 3.83 ± 0.14 kcal/mol
[2]
  folding stability dG unfold: 3.52 ± 0.13 kcal/mol
[3]
  folding stability dG unfold: 4.01 ± 0.09 kcal/mol

## SAGGKKVVIVFDVENLTPEQIRELVRKAIESLPDPENVVIVANVTSPATVEELAELAKEHPEVKFVVGSAGG [r13_718_TrMRF]
[1]
  folding stability dG unfold: 3.56 ± 0.12 kcal/mol
[2]
  folding stability dG unfold: 3.79 ± 0.11 kcal/mol
[3]
  folding stability dG unfold: 3.45 ± 0.085 kcal/mol

## AVTVTVEPVGDALVVTVDLPRADGSPVRVVALFDPDGTVARVLVARSDPGPPRFVEVPAAPASDPVLLAAGS [r1_301_TrMRF]
[1]
  folding stability dG unfold: 0.993 ± 0.13 kcal/mol
[2]
  folding stability dG unfold: 0.23 ± 0.2 kcal/mol
[3]
  folding stability dG unfold: 1.38 ± 0.14 kcal/mol

— the supplement of paper PMC12764529
